Reference: PMC4425898, “High yield purification of Helicobacter pylori neutrophil-activating protein overexpressed in Escherichia coli” (BMC Biotechnology, 2015)

Biological target: the molecule itself
Experiment: native gel or EMSA; native-PAGE (10% acrylamide) of load, unbound, wash and elution fractions of DEAE Sephadex and DEAE Sepharose batch chromatography; 20 mM Tris-HCl, pH 7.0 to 9.0, 50 mM NaCl (1 M NaCl for elution), 4°C

B1: Helicobacter pylori neutrophil-activating protein (natural protein)
chain: MKTFEILKHLQADAIVLFMKVHNFHWNVKGTDFFNVHKATEEIYEEFADMFDDLAERIVQLGHHPLVTLSEAIKLTRVKEETKTSFHSKDIFKEILEDYKYLEKEFKELSNTAEKEGDKVTVTYADDQLAKLQKSIWMLQAHLA
notes: subunit of about 17 kDa on SDS-PAGE; No tag is named; its own experiments show only an oligomer; also called HP-NAP; recombinant HP-NAP; source: E. coli BL21(DE3), plasmid pET42a-NAP; copies: 12
binding result: binds
